In patent US20110008766A1 (AbbVie / Abbott, published 2011):

Assays:
[1] = target: T1, brain natriuretic peptide (BNP) (UniProt P16860 103-134); assay: FRET quenching titration in solution; one value given for outer and inner domain
T1 construct: ALEXA Fluor 488-labelled in the FRET assay
Procedure: (§1) Briefly, the dissociation constants for the outer variable binding domain and the inner variable binding domain of a given DVD-Ig and its corresponding antigen were measured in direct binding experiments. […] After 30 minutes of incubation, all samples were measured on an SLM 8100 photon counting spectrofluorimeter. Samples were excited at 480 nm, and the emission was collected through a 530 nm (30 nm bandwidth) interference filter (Chroma Technology Corp., Rockingham, Vt.). All binding measurements were performed in 10 mM HEPES buffer, pH 7.4, containing 0.15 M NaCl, 3 mM EDTA, and 0.005% surfactant P20.
(§2) where Ligandₜₒₜₐₗ and ABSₜₒₜₐₗ are the -antigen concentrations and the total DVD-Ig binding sites for that antigen, respectively, and Fbound is the fraction of bound antigen. The binding data were fitted with a simple binding model to obtain the equilibrium dissociation constant (KD) according to equation [2]: […]

[2] = target: T2, neutrophil gelatinase associated lipocalin (NGAL) (UniProt P80188 21-198); assay: as above
T2 construct: also called recombinant NGAL
Procedure: as §1, §2

[3] = target: T2, neutrophil gelatinase associated …; assay: FRET quenching titration in solution; one value printed for outer (2322) and inner (903) domain
Procedure: as §1, §2

interleukin 18 (IL-18) = target: T3, interleukin 18 (IL-18) (UniProt Q14116 37-193); assay: FRET quenching titration in solution; outer domain (IL-18 1-4091); outer domain (IL-18 1-4091)
T3 construct: ALEXA Fluor 488-labelled in the FRET assay
Procedure: as §1, §2

[4] = target: T2, neutrophil gelatinase associated …; assay: FRET quenching titration in solution; inner domain (NGAL 1-2322-455); inner domain (NGAL 1-2322-455)
Procedure: as §1, §2

[5] = target: T1, brain natriuretic peptide (BNP); assay: FRET quenching titration in solution; ALEXA 488-antigen, BHQ-labelled binder
Procedure: as §1, §2

[6] = target: T2, neutrophil gelatinase associated …; assay: as above
Procedure: as §1, §2

T2 sequence (P80188 21-198 limits assumed): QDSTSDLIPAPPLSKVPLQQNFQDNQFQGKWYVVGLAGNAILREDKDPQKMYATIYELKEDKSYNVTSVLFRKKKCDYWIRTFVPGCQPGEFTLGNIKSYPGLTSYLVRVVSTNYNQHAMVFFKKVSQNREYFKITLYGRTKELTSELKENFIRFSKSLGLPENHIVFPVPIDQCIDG

B1: DVD738 (bispecific antibody)
VH: QIQLVQSGPELRKPGETVKISCKGSGYTFTHYGINWVKQTPRKDLKWMGWINTHTGEAYYADDFKGRFAFSLETSANTAYLQINNLNNGDMGTYFCTRSHRFGLDYWGQGTSVTVSSASTKGPSVFPLAPQVQLQQPGAELVRPGASVKLSCKASGYTFTSYWMNWVKQRPEQGLEWIGRIDPYDSETHYNQKFKDKAILTVDKSSSTAFVQLTSLTSEDSAVYYCVSDGYWGAGTTVTVSS
VL: DNVLTQSPPSLAVSLGQRATISCKANWPVDYNGDSYLNWYQQKPGQPPKFLIYAASNLESGIPARFSGSGSGTDFNLNIHPVEEEDAATYYCQQSNEDPFTFGSGTKLEIKRTVAAPSVFIFPPDVVMTQTPLTLSVTTGQPASISCKSSQSLLDSDGKTYLNWLFQRPGESPKLLIYVVSKLESGVPDRFTGSGSGTDFTLKISRVEAEDLGVYYCLQATHFPWTFGGGTKLEIKR
notes: also called DVD738H/DVD738L
In the case of B1, the Kd [1] is reported as < 0.03 nM.

B2: DVD721 (antibody)
VH: KIQLVQSGPELKKPGETVKISCKASGYTFTNYGMNWVKQAPGKGLKWMGWININTGEPTYAEEFKGRFAFSLETSATTAFLQINNLKNEDTATYLCARDSYSGGFDYWGQGTIVTVSSASTKGPSVFPLAPKIQLVQSGPELKKPGETVKISCKASGYTFTNYGMNWVKQAPGKGLKWMGWININTGEPTYAEEFKGRFAFSLETSATTAFLQINNLKNEDTATYLCARDSYSGGFDYWGQGTIVTVSS
VL: DIVMTQSPSSLSVSAGEKVTLSCKSSQSLLISGDQKNYLAWYQQKPGQPPKLLIYGASTRDSGVPDRFTGSGSGADFTLTISSVQAEDLAVYYCQNDHSFPPTFGAGTKLELKRTVAAPSVFIFPPDIVMTQSPSSLSVSAGEKVTLSCKSSQSLLISGDQKNYLAWYQQKPGQPPKLLIYGASTRDSGVPDRFTGSGSGADFTLTISSVQAEDLAVYYCQNDHSFPPTFGAGTKLELKR
notes: also called DVD721 (903-903-LL)
B2 was tested, and the Kd [2] was < 0.3 nM.

B3: DVD720 (antibody)
VH: EVQLVESGGGLVQPGGSLKLSCAASGFTFNNYYMSWVRQTPERRLEWVAYISSSGGSTYYSDSVRGRFTISRDTARNTLYLQMTSLKSEDTAMYYCARHFGDYSYFDYWGQGTTLTVSSASTKGPEVQLVESGGGLVQPGGSLKLSCAASGFTFNNYYMSWVRQTPERRLEWVAYISSSGGSTYYSDSVRGRFTISRDTARNTLYLQMTSLKSEDTAMYYCARHFGDYSYFDYWGQGTTLTVSS
VL: DIQMTQSPASLSASVGETVTITCRASENFYSYLAWYQQKQGKSPQLLVYNAKTLAEGVPSRFSGSGSGTQFSLKINSLQPEDFGTYYCQHHYDIPLTFGAGTKLELKRTVAAPDIQMTQSPASLSASVGETVTITCRASENFYSYLAWYQQKQGKSPQLLVYNAKTLAEGVPSRFSGSGSGTQFSLKINSLQPEDFGTYYCQHHYDIPLTFGAGTKLELKR
notes: also called DVD720 (2322-2322-SS)
In the case of B3, the Kd [2] is reported as < 0.07 nM.

B4: DVD723 (bispecific antibody)
VH: EVQLVESGGGLVQPGGSLKLSCAASGFTFNNYYMSWVRQTPERRLEWVAYISSSGGSTYYSDSVRGRFTISRDTARNTLYLQMTSLKSEDTAMYYCARHFGDYSYFDYWGQGTTLTVSSASTKGPSVFPLAPKIQLVQSGPELKKPGETVKISCKASGYTFTNYGMNWVKQAPGKGLKWMGWININTGEPTYAEEFKGRFAFSLETSATTAFLQINNLKNEDTATYLCARDSYSGGFDYWGQGTIVTVSS
VL: DIQMTQSPASLSASVGETVTITCRASENFYSYLAWYQQKQGKSPQLLVYNAKTLAEGVPSRFSGSGSGTQFSLKINSLQPEDFGTYYCQHHYDIPLTFGAGTKLELKRTVAAPSVFIFPPDIVMTQSPSSLSVSAGEKVTLSCKSSQSLLISGDQKNYLAWYQQKPGQPPKLLIYGASTRDSGVPDRFTGSGSGADFTLTISSVQAEDLAVYYCQNDHSFPPTFGAGTKLELKR
notes: also called DVD723 (2322-903-LL)
B4 was tested, and the Kd [3] was < 0.2 nM.

B5: DVD731 (bispecific antibody)
VH: QVQLQQPGSELVRPGASVKLSCKASGYTFTSYWMHWVKQRPGQGLEWIGNIYPGTVNTNYDEKFKNKATLTVDTSSSTAYMLLSSLTSEDSAVYYCTRDYYGGGLNYWGQGTTLTVSSASTKGPSVFPLAPEVQLVESGGGLVQPGGSLKLSCAASGFTFNNYYMSWVRQTPERRLEWVAYISSSGGSTYYSDSVRGRFTISRDTARNTLYLQMTSLKSEDTAMYYCARHFGDYSYFDYWGQGTTLTVSS
VL: SIVMTQTPKFLLVSAGDRVTITCKASQSVSNDVAWFQQKPGQSPKLLIYYASNRYAGVPDRFTGSGFGTDFTFTISTVQAEDLAVYFCHQDYSSPRTFGGGTKLEIKRTVAAPSVFIFPPDIQMTQSPASLSASVGETVTITCRASENFYSYLAWYQQKQGKSPQLLVYNAKTLAEGVPSRFSGSGSGTQFSLKINSLQPEDFGTYYCQHHYDIPLTFGAGTKLELKR
notes: also called DVD731 (IL18-2322-LL)
With B5 the Kd (interleukin 18 (IL-18)) was 0.9 nM and the Kd [4] was 0.08 nM.

B6: AB090 (antibody, V domains shown)
VH: QVQLQQPGAELVRPGASVKLSCKASGYTFTSYWMNWVKQRPEQGLEWIGRIDPYDSETHYNQKFKDKAILTVDKSSSTAFVQLTSLTSEDSAVYYCVSDGYWGAGTTVTVSS
VL: DVVMTQTPLTLSVTTGQPASISCKSSQSLLDSDGKTYLNWLFQRPGESPKLLIYVVSKLESGVPDRFTGSGSGTDFTLKISRVEAEDLGVYYCLQATHFPWTFGGGTKLEIKR
notes: also called BNP 3-631-436
With B6 the Kd [5] was 0.3 nM.

B7: DVD730 (bispecific antibody)
VH: QVQLQQPGSELVRPGASVKLSCKASGYTFTSYWMHWVKQRPGQGLEWIGNIYPGTVNTNYDEKFKNKATLTVDTSSSTAYMLLSSLTSEDSAVYYCTRDYYGGGLNYWGQGTTLTVSSASTKGPEVQLVESGGGLVQPGGSLKLSCAASGFTFNNYYMSWVRQTPERRLEWVAYISSSGGSTYYSDSVRGRFTISRDTARNTLYLQMTSLKSEDTAMYYCARHFGDYSYFDYWGQGTTLTVSS
VL: SIVMTQTPKFLLVSAGDRVTITCKASQSVSNDVAWFQQKPGQSPKLLIYYASNRYAGVPDRFTGSGFGTDFTFTISTVQAEDLAVYFCHQDYSSPRTFGGGTKLEIKRTVAAPDIQMTQSPASLSASVGETVTITCRASENFYSYLAWYQQKQGKSPQLLVYNAKTLAEGVPSRFSGSGSGTQFSLKINSLQPEDFGTYYCQHHYDIPLTFGAGTKLELKR
notes: also called DVD730 (IL18-2322-SS)
B7 was tested, and the Kd (interleukin 18 (IL-18)) was 0.6 nM.

B8: DVD719 (antibody)
VH: EVQLVESGGGLVQPGGSLKLSCAASGFTFNNYYMSWVRQTPERRLEWVAYISSSGGSTYYSDSVRGRFTISRDTARNTLYLQMTSLKSEDTAMYYCARHFGDYSYFDYWGQGTTLTVSSASTKGPSVFPLAPEVQLVESGGGLVQPGGSLKLSCAASGFTFNNYYMSWVRQTPERRLEWVAYISSSGGSTYYSDSVRGRFTISRDTARNTLYLQMTSLKSEDTAMYYCARHFGDYSYFDYWGQGTTLTVSS
VL: DIQMTQSPASLSASVGETVTITCRASENFYSYLAWYQQKQGKSPQLLVYNAKTLAEGVPSRFSGSGSGTQFSLKINSLQPEDFGTYYCQHHYDIPLTFGAGTKLELKRTVAAPSVFIFPPDIQMTQSPASLSASVGETVTITCRASENFYSYLAWYQQKQGKSPQLLVYNAKTLAEGVPSRFSGSGSGTQFSLKINSLQPEDFGTYYCQHHYDIPLTFGAGTKLELKR
notes: also called DVD719 (2322-2322-LL)
In the case of B8, the Kd [2] is reported as < 0.05 nM.

B9: AB082 (antibody, V domains shown)
VH: EVQLVESGGGLVQPGGSLKLSCAASGFTFNNYYMSWVRQTPERRLEWVAYISSSGGSTYYSDSVRGRFTISRDTARNTLYLQMTSLKSEDTAMYYCARHFGDYSYFDYWGQGTTLTVSS
VL: DIQMTQSPASLSASVGETVTITCRASENFYSYLAWYQQKQGKSPQLLVYNAKTLAEGVPSRFSGSGSGTQFSLKINSLQPEDFGTYYCQHHYDIPLTFGAGTKLELKR
notes: also called AB082 (2322); Chimeric mAb 2322
B9 was tested, and the Kd [6] was < 0.05 nM.

B10: DVD736 (bispecific antibody)
VH: QVQLQQPGAELVRPGASVKLSCKASGYTFTSYWMNWVKQRPEQGLEWIGRIDPYDSETHYNQKFKDKAILTVDKSSSTAFVQLTSLTSEDSAVYYCVSDGYWGAGTTVTVSSASTKGPSVFPLAPQIQLVQSGPELRKPGETVKISCKGSGYTFTHYGINWVKQTPRKDLKWMGWINTHTGEAYYADDFKGRFAFSLETSANTAYLQINNLNNGDMGTYFCTRSHRFGLDYWGQGTSVTVSS
VL: DVVMTQTPLTLSVTTGQPASISCKSSQSLLDSDGKTYLNWLFQRPGESPKLLIYVVSKLESGVPDRFTGSGSGTDFTLKISRVEAEDLGVYYCLQATHFPWTFGGGTKLEIKRTVAAPSVFIFPPDNVLTQSPPSLAVSLGQRATISCKANWPVDYNGDSYLNWYQQKPGQPPKFLIYAASNLESGIPARFSGSGSGTDFNLNIHPVEEEDAATYYCQQSNEDPFTFGSGTKLEIKR
notes: also called DVD736H/DVD736L
B10 was tested, and the Kd [1] was < 0.03 nM.

B11: AB083 (antibody, V domains shown)
VH: KIQLVQSGPELKKPGETVKISCKASGYTFTNYGMNWVKQAPGKGLKWMGWININTGEPTYAEEFKGRFAFSLETSATTAFLQINNLKNEDTATYLCARDSYSGGFDYWGQGTIVTVSS
VL: DIVMTQSPSSLSVSAGEKVTLSCKSSQSLLISGDQKNYLAWYQQKPGQPPKLLIYGASTRDSGVPDRFTGSGSGADFTLTISSVQAEDLAVYYCQNDHSFPPTFGAGTKLELKR
notes: also called AB083 (903); Chimeric mAb 903
Work on B11 yielded a Kd [6] of 0.7 nM.
